These results are taken from publication PMC9781616.

In the test the target is Echovirus 11 (E11) strain 18-2135 full virus particle (capsid of VP1-4) (echovirus 11 (strain 18-2135)). Description: cryo-EM structure.

Substance “Decay-accelerating factor (DAF) full-length ectodomain, short consensus repeats SCR 1-4 (from UniProt P08174 35-285) (receptor)” yielded a DAF occupancy of 31.5% and a stoichiometry N (DAF molecules per particle) of 20.
